{"source": "paper PMC5027613", "about": "“A second DNA binding site in human BRCA2 promotes homologous recombination”", "binders": {"B1": {"name": "40 bp dsDNA (oAC405/oAC406) (dsDNA)", "DNA 1": "TAATACAAAATAAGTAAATGAATAAACAGAGAAAATAAAG", "DNA 2": "CTTTATTTTCTCTGTTTATTCATTTACTTATTTTGTATTA"}, "B2": {"name": "dT80 biotin (ssDNA)", "DNA": "TTTTTTTTTTTTTTTTTTTTTTTTTTTTTTTTTTTTTTTTTTTTTTTTTTTTTTTTTTTTTTTTTTTTTTTTTTTTTTTT", "modifications": "3'-biotin"}, "B3": {"name": "167mer ssDNA (oAC423) (ssDNA)", "DNA": "CTGCTTTATCAAGATAATTTTTCGACTCATCAGAAATATCCGTTTCCTATATTTATTCCTATTATGTTTTATTCATTTACTTATTCTTTATGTTCATTTTTTATATCCTTTACTTTATTTTCTCTGTTTATTCATTTACTTATTTTGTATTATCCTTATCTTATTTA"}, "B4": {"name": "5' overhang (oAC423 + oAC403 as stated) (mixed)", "DNA 1": "B3 DNA", "DNA 2": "CGGATATTTCTGATGAGTCGAAAAATTATCTTGATAAAGCAG"}, "B5": {"name": "gapped DNA (oAC423 + oAC403 + oAC490) (mixed)", "DNA 1": "B3 DNA", "DNA 2": "B4 DNA 2", "DNA 3": "TAAATAAGATAAGGATAATACAAAATAAGTAAATGAATAAAC"}, "B6": {"name": "3' overhang (oAC423 + oAC490 as stated) (mixed)", "DNA 1": "B3 DNA", "DNA 2": "B5 DNA 3"}}, "key": {"[1]": {"target": "T1, BRCA2T1 (human, UniProt P51587 1-250)", "T1 sequence": "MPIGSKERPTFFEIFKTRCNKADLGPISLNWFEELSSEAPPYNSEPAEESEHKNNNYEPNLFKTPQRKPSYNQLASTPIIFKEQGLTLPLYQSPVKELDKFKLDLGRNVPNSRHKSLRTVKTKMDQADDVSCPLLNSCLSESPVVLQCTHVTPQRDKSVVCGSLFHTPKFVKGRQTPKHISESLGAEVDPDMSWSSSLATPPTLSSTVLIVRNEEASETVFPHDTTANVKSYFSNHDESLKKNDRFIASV", "test": "EMSA; up to 300 nM; EMSA: 25 mM Tris acetate pH 7.5, 1 mM DTT, 1 mM MgCl2, 2 mM CaCl2, 0.2 uM nucleotides DNA, 1 h at 37 C; 6% native PAGE in 1x TAE", "conditions": "protein: recombinant; tags: N-terminal 2xMBP, 2 NLS; label: 5'-32P"}, "[2]": {"target": "T2, BRCA2 CTD;DSS1 (human;human?, UniProt P51587;P60896 2474-3190;1-70, |)", "test": "EMSA; EMSA: 25 mM Tris acetate pH 7.5, 1 mM DTT, 1 mM MgCl2, 2 mM CaCl2, 0.2 uM nucleotides DNA, 1 h at 37 C; 6% native PAGE in 1x TAE", "conditions": "protein: recombinant;recombinant; tags: 6xHis-SUMO;; copies: 1;1; label: 5'-32P on oAC405; blunt"}, "[3]": {"target": "T1, BRCA2T1", "test": "pull-down; not titrated out by free dT40; EMSA: 25 mM Tris acetate pH 7.5, 1 mM DTT, 1 mM MgCl2, 2 mM CaCl2, 0.2 uM nucleotides DNA, 1 h at 37 C; 6% native PAGE in 1x TAE", "conditions": "protein: recombinant; tags: N-terminal 2xMBP, 2 NLS; label: biotin, on streptavidin beads"}, "[4]": {"target": "T3, BRCA2T2 (NTD) (human, UniProt P51587 251-500)", "T3 sequence": "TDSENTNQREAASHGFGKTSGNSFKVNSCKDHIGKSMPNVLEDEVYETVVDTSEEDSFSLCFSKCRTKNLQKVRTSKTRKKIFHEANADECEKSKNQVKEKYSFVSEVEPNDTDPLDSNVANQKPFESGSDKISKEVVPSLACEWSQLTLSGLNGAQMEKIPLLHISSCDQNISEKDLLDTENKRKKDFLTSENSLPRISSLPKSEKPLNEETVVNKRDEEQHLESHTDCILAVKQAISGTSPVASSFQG", "test": "pull-down; titrated out by excess free dT40; EMSA: 25 mM Tris acetate pH 7.5, 1 mM DTT, 1 mM MgCl2, 2 mM CaCl2, 0.2 uM nucleotides DNA, 1 h at 37 C; 6% native PAGE in 1x TAE", "conditions": "protein: recombinant; tags: N-terminal 2xMBP, 2 NLS; label: biotin, on streptavidin beads"}, "[5]": {"target": "T2, BRCA2 CTD;DSS1", "test": "EMSA; lower yield than BRCA2T2; EMSA: 25 mM Tris acetate pH 7.5, 1 mM DTT, 1 mM MgCl2, 2 mM CaCl2, 0.2 uM nucleotides DNA, 1 h at 37 C; 6% native PAGE in 1x TAE", "conditions": "protein: recombinant;recombinant, tags: 6xHis-SUMO;, copies: 1;1"}, "[6]": {"target": "T3, BRCA2T2 (NTD)", "test": "EMSA; yield similar to dsDNA (~40%) at 1.5 uM; EMSA: 25 mM Tris acetate pH 7.5, 1 mM DTT, 1 mM MgCl2, 2 mM CaCl2, 0.2 uM nucleotides DNA, 1 h at 37 C; 6% native PAGE in 1x TAE", "conditions": "protein: recombinant; tags: N-terminal 2xMBP, 2 NLS; label: 5'-32P"}, "[7]": {"target": "BRCA2 full length (human, UniProt P51587 1-3418)", "test": "EMSA; ~100 times lower concentration needed than BRCA2T2; EMSA: 25 mM Tris acetate pH 7.5, 1 mM DTT, 1 mM MgCl2, 2 mM CaCl2, 0.2 uM nucleotides DNA, 1 h at 37 C; 6% native PAGE in 1x TAE", "conditions": "protein: recombinant; tags: N-terminal EGFP-MBP; label: 5'-32P"}, "[8]": {"target": "T3, BRCA2T2 (NTD)", "test": "EMSA; higher yield than CTD; EMSA: 25 mM Tris acetate pH 7.5, 1 mM DTT, 1 mM MgCl2, 2 mM CaCl2, 0.2 uM nucleotides DNA, 1 h at 37 C; 6% native PAGE in 1x TAE", "conditions": "protein: recombinant, tags: N-terminal 2xMBP, 2 NLS"}, "[9]": {"target": "T3, BRCA2T2 (NTD)", "test": "EMSA; EMSA: 25 mM Tris acetate pH 7.5, 1 mM DTT, 1 mM MgCl2, 2 mM CaCl2, 0.2 uM nucleotides DNA, 1 h at 37 C; 6% native PAGE in 1x TAE", "conditions": "protein: recombinant; tags: N-terminal 2xMBP, 2 NLS; label: 32P; 1:2 1:3, two 42 bp duplexes with 83 nt gap"}, "[10]": {"target": "T2, BRCA2 CTD;DSS1", "test": "EMSA; ~40-fold lower yield than BRCA2T2 at 1 uM; EMSA: 25 mM Tris acetate pH 7.5, 1 mM DTT, 1 mM MgCl2, 2 mM CaCl2, 0.2 uM nucleotides DNA, 1 h at 37 C; 6% native PAGE in 1x TAE", "conditions": "protein: recombinant;recombinant; tags: 6xHis-SUMO;; copies: 1;1; label: 32P; 1:2 1:3, two 42 bp duplexes with 83 nt gap"}}}
{"binder": "TTTTTTTTTTTTTTTTTTTTTTTTTTTTTTTTTTTTTTTT (ssDNA)", "note": "[dT40 (oAC379)]", "values": [{"measurement": "binding result", "setting": "[1]", "value": "no binding"}]}
{"binder": "B1", "values": [{"measurement": "binding result", "setting": "[2]", "value": "no binding"}]}
{"binder": "B2", "values": [{"measurement": "binding result", "setting": "[3]", "value": "no binding"}, {"measurement": "binding result", "setting": "[4]", "value": "binds"}]}
{"binder": "B3", "values": [{"measurement": "binding result", "setting": "[5]; label: 5'-32P", "value": "binds"}, {"measurement": "binding result", "setting": "[6]", "value": "binds"}, {"measurement": "binding result", "setting": "[7]", "value": "binds"}]}
{"binder": "B4", "values": [{"measurement": "binding result", "setting": "[5]; label: 32P", "value": "binds"}, {"measurement": "binding result", "setting": "[8]; label: 32P", "value": "binds"}]}
{"binder": "B5", "values": [{"measurement": "binding signal", "setting": "[9]", "value": "~40 fold higher yield than CTD at 1 uM"}, {"measurement": "binding result", "setting": "[10]", "value": "binds"}]}
{"binder": "B6", "values": [{"measurement": "binding result", "setting": "[5]; label: 32P on oAC490", "value": "binds"}, {"measurement": "binding result", "setting": "[8]; label: 32P on oAC490", "value": "binds"}]}
